Reference: patent US20210040232A1 (Regeneron, published 2021)

What was measured:
[1] = molecular target: T1, soluble human CTLA-4 expressed with a C-terminal myc-myc-polyhistidine tag (human); experiment: SPR, mAb capture, 25 C
T1 construct: soluble protein; also called hCTLA-4.mmh; hCTLA4.mmh

[2] = molecular target: T2, soluble Macaca fascicularis CTLA-4 expressed with a C-terminal myc-myc-polyhistidine tag (Macaca fascicularis); experiment: SPR, mAb capture, 25 C
T2 construct: soluble protein; also called mf CTLA-4.mmh; mfCTLA4.mmh
T2 chain: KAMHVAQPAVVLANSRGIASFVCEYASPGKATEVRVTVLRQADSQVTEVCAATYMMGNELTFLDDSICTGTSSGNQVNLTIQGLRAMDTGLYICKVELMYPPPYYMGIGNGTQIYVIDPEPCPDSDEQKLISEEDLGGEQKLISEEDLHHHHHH

[3] = molecular target: T3, recombinant hCTLA-4-mFc (human CTLA-4 extracellular domain with a C-terminal Fc portion of mouse IgG2a) (human); experiment: competition ELISA, 400 pM hCTLA-4-mFc on plate-coated hB7-2-hIgG1-6His; * value below theoretical bottom of assay
T3 construct: also called dimeric CTLA-4 protein

[4] = molecular target: T3, recombinant hCTLA-4-mFc (human CTLA-4 …); experiment: competition ELISA, 400 pM hCTLA-4-mFc on plate-coated hB7-2-hIgG1-6His
[5] = molecular target: T3, recombinant hCTLA-4-mFc (human CTLA-4 …); experiment: competition ELISA, 200 pM hCTLA-4-mFc on plate-coated hB7-1-hIgG1-6His
[6] = molecular target: T4, human CTLA-4 (amino acids M1-N223) on stably transfected VI-fibroblast cells (human, UniProt P16410 36-223); experiment: ECL cell binding, VI-fibroblast/hCTLA-4 cells;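 note: antibodies bound to the cells on carbon electrode plates, detected via SULFO-TAG anti-IgG secondary (1 h, RT), electrochemiluminescence read as RLU over a concentration range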
T4 construct: also called VI-fibroblast/hCTLA-4

[7] = molecular target: T5, hCTLA-4 extracellular domain (aa 1-161) fused to the trans-membrane and cytoplasmic domain of hCD300a (aa … (human, UniProt Q9UGN4 181-299)); experiment: ECL cell binding, Jurkat/NFAT-Luc/hCTLA-4-hCD300a cells
T5 construct: range 181-299; the range as stated begins at residue 1 and so holds the signal peptide; also called Jurkat/NFAT-Luc/hCTLA-4-hCD300a; hCTLA-4/hCD300 chimera

[8] = molecular target: T5, hCTLA-4 extracellular domain (aa 1-161) …; experiment: cell-based or functional assay
[9] = molecular target: T5, hCTLA-4 extracellular domain (aa 1-161) …; experiment: cell-based or functional assay; remark: listed apart in the source
[10] = molecular target: T3, recombinant hCTLA-4-mFc (human CTLA-4 …); experiment: competition ELISA, 200 pM hCTLA-4-mFc on plate-coated hB7-1-hIgG1-6His; * value below theoretical bottom of assay
[11] = molecular target: mf CTLA-4 extracellular domain (aa 1-161) fused to the trans-membrane and cytoplasmic domain of hCD300a (aa … (Macaca fascicularis; human, UniProt G7PL88 1-161; Q9UGN4 181-299); experiment: cell-based or functional assay

T5 sequence (Q9UGN4 other isoform, or with tags, fused parts or gaps limits assumed, form in doubt): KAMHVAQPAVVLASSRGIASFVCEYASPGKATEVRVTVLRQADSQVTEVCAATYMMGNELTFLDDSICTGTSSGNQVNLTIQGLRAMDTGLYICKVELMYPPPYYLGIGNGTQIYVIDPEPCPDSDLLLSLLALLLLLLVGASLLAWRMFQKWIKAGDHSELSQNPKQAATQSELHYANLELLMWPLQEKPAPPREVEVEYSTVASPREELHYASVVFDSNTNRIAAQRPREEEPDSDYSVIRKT
T3 sequence (chain, as listed by the source limits assumed): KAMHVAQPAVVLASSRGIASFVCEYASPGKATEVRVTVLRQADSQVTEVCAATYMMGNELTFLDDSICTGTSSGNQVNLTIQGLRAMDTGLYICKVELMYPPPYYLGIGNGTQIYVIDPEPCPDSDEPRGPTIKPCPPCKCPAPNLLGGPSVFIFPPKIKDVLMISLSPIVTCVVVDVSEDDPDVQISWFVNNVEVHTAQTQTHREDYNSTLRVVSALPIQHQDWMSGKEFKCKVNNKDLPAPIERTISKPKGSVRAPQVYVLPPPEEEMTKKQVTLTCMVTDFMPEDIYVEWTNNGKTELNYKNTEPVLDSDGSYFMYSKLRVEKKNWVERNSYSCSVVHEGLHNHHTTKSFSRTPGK
T4 sequence (P16410 36-223 limits assumed): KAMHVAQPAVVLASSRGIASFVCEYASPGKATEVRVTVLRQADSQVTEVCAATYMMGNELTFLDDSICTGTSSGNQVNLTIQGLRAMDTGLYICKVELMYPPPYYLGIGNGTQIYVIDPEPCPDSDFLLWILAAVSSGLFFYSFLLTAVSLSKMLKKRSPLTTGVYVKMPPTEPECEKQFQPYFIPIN

B1: H1H19269P (antibody, human IgG1, V domains shown)
VH: EVQLVESGGGLVQPGGSLKLSCAASGFTFSGSAMHWVRQASGKGLEWVGRIRGKANSFATAYSASVKGRFTISRDDSKNTASLQMNSLRTEDTAVYFCTREDQQLVRPYYYHYGMDVWGQGTTVTVSS
VL: DIQMTQSPSSLSASVGDRVTITCRTSQSITNYLNWYQQKPGKAPKLLIYATASLQSGVPSRFSGSGSETDFTLTISSLQPEDFATYYCQQSYSTPLTFGGGTKVEIK
Kd [1]: 1.2 nM
koff [1]: 0.000474 s⁻¹
kon [1]: 394000 M⁻¹ s⁻¹
t1/2 [1]: 24.4 min
Kd [2]: 1.22 nM
koff [2]: 0.000435 s⁻¹
kon [2]: 356000 M⁻¹ s⁻¹
t1/2 [2]: 26.6 min
IC50 [3]: 0.19 nM
% Blockade [4]: 100%
% Blockade [5]: 98%
IC50 [5]: 0.1 nM
EC50 [6]: 0.4 nM
ratio of RLU signal to parental VI-fibroblast at 0.4 nM Ab [6]: 15 ratio

B2: H1H19319P2 (antibody, human IgG1, V domains shown)
VH: QVQLVESGGGEVQPGRSLRLSCAASGFTFSSYGMHWVRQAPGKGLEWVAVIWYDGRNKHYVDSVKGRFTISRDNSKNTVYLQMNSLRAEDSAVYYCVRGGQLGAFDYWGQGTLVTVSS
VL: not shown
Kd [1]: 10.2 nM
t1/2 [1]: 7.9 min
Kd [2]: 12.9 nM
t1/2 [2]: 4.4 min
% Blockade [4]: 97%
IC50 [4]: 43 nM
% Blockade [5]: 85%
IC50 [5]: 320 nM
EC50 [7]: 0.28 nM
EC50 [6]: 0.24 nM
EC50, T-cell/APC NFAT-luciferase assay, +Fc Block [8]: 4.18 nM
EC50, T-cell/APC NFAT-luciferase assay, -Fc Block [8]: 2.47 nM

B3: H1H19313P (antibody, human IgG1, V domains shown)
VH: QITLKESGPTLVKPTQTLTLTCTFSGFSLSTSGVGVGWIRQPPGVALEWLALIYWNDDKRFSPSLKSRLTITKDTSKNQVVLTMTNMDPVDTATYYCAHRRLGLYYFDYWGQGTLVTVSS
VL: DIQLTQSPSFLSASVGDRVTITCWASQGISSYLAWYQQKPGKAPKLLIYAASTLQSGVPSRFSGSGSGTEFTLTISSLQPEDFATYYCQQVHIYPFTFGPGTKVDIK
Kd [1]: 1.55 nM
koff [1]: 0.000758 s⁻¹
kon [1]: 489000 M⁻¹ s⁻¹
t1/2 [1]: 15.2 min
Kd [2]: 0.976 nM
koff [2]: 0.000464 s⁻¹
kon [2]: 475000 M⁻¹ s⁻¹
t1/2 [2]: 24.9 min
% Blockade [4]: 99%
IC50 [4]: 0.77 nM
% Blockade [5]: 98%
IC50 [5]: 0.4 nM
EC50 [7]: 0.11 nM
EC50, T-cell/APC IL-2 release assay, APC HEK293/hCD20/hCD80 [9]: 21.9 nM
Fold induction of IL-2 at 100 nM, APC HEK293/hCD20/hCD80 [9]: 5.7 fold
EC50 [6]: 0.16 nM
ratio of RLU signal to parental VI-fibroblast at 0.4 nM Ab [6]: 11 ratio
EC50, T-cell/APC NFAT-luciferase assay, +Fc Block [8]: 3.47 nM
EC50, T-cell/APC NFAT-luciferase assay, -Fc Block [8]: 1.69 nM

B4: H1H19281P (antibody, human IgG1, V domains shown)
VH: QVQLVESGGGVVQPGRSLRLSCAASGLTFSYYGMHWVRQAPGKGLEWVAVISYDGSNKYYADSVKGRFTISRDNSKNTLYLQMNSLRAEDAAVYYCAKDLGGDDYYGMDVWGQGTTVTVSS
VL: EIVLTQSPGTLSLSPGERATLSCRASQSVSRTYLAWYQQKPGQAPRLLIYGAFSRATGIPDRFSGSGSGTDFTLTISRLEPEDFAVYYCQQYGSSPYTFGQGTKLEIK
Kd [1]: 1.53 nM
koff [1]: 0.000741 s⁻¹
kon [1]: 484000 M⁻¹ s⁻¹
t1/2 [1]: 15.6 min
Kd [2]: 2.14 nM
koff [2]: 0.00101 s⁻¹
kon [2]: 472000 M⁻¹ s⁻¹
t1/2 [2]: 11.5 min
IC50 [3]: 0.19 nM
% Blockade [4]: 100%
% Blockade [5]: 99%
EC50 [6]: 0.075 nM
ratio of RLU signal to parental VI-fibroblast at 0.4 nM Ab [6]: 23 ratio
IC50 [10]: 0.094 nM

B5: H1H19327P2 (antibody, human IgG1, V domains shown)
VH: QVQLVESGGGVVQPGRSLRLSCAASGFTSSSYGIHWVRQAPGKGLEWVAVIWYDGSNKYYADSVKGRFTISRDNSKNTLYLQMNSLRAEDTAVYYCARGGPWGAFDIWGQGTMVTVSS
VL: not shown
Kd [1]: 66.3 nM
koff [1]: 0.000585 s⁻¹
kon [1]: 8810 M⁻¹ s⁻¹
t1/2 [1]: 19.8 min
Kd [2]: 62.4 nM
koff [2]: 0.0117 s⁻¹
kon [2]: 188000 M⁻¹ s⁻¹
t1/2 [2]: 1 min
% Blockade [4]: 38%
% Blockade [5]: 7%
EC50 [6]: 0.29 nM
ratio of RLU signal to parental VI-fibroblast at 0.4 nM Ab [6]: 16 ratio
EC50, T-cell/APC NFAT-luciferase assay, +Fc Block [8]: 5.49 nM
EC50, T-cell/APC NFAT-luciferase assay, -Fc Block [8]: 4.2 nM
EC50, T-cell/APC NFAT-luciferase assay, +Fc Block [11]: 5.76 nM

B6: H1H19273P (antibody, human IgG1, V domains shown)
VH: QITLKESGPTLVKPTQTLTLTCTFSGFSLSTSGVGVGWIRQSPGRALEWLALIYWNDHERYSPSLKSRLTITKDTSKNLVVLAMANMDPVDTATYFCAHRNIEYRRSYFFDYWGQGTLVTVSS
VL: DIQMTQSPSSVSASVRDRVTVTCRASQDINNWLAWYQQKPGKAPKLLIYAASSLQSGVPSRFSGSGSGTDFTLTISSLQPEDFATYYCQQANTFPFTFGPGTKVDIK
Kd [1]: 0.966 nM
koff [1]: 0.000362 s⁻¹
kon [1]: 374000 M⁻¹ s⁻¹
t1/2 [1]: 31.9 min
Kd [2]: 0.956 nM
koff [2]: 0.000346 s⁻¹
kon [2]: 362000 M⁻¹ s⁻¹
t1/2 [2]: 33.4 min
% Blockade [4]: 98%
IC50 [4]: 0.54 nM
% Blockade [5]: 98%
IC50 [5]: 0.25 nM
EC50 [7]: 0.52 nM
EC50, T-cell/APC IL-2 release assay, APC HEK293/hCD20/hCD80 [9]: 33.3 nM
Fold induction of IL-2 at 100 nM, APC HEK293/hCD20/hCD80 [9]: 5.1 fold
ratio of RLU signal to parental VI-fibroblast at 0.4 nM Ab [6]: 11 ratio
EC50, T-cell/APC NFAT-luciferase assay, +Fc Block [8]: 3.83 nM
EC50, T-cell/APC NFAT-luciferase assay, -Fc Block [8]: 2.74 nM

B7: H1H19303P (antibody, human IgG1, kappa, V domains shown)
VH: EVQLVESGGGLVQPGGSLRLSCAASGFTFSNYEMSWVRQAPGKGLEWVSSIRTSGTTKYYADSMKGRFTISRDNAKNSLYLQMNSLRAEDTAVYYCAGGGTFLHYWGQGTLVTVSS
VL: DIQMTQSPSSVSASVGDRVTITCRASQGIASYLAWYQQKPGKAPKLLIYAASSLQTGVPSRFSGSGYGTDFTLTISSLQPEDFATYYCQQAKSFPMYTFGQGTKLEIKR
notes: also called REGN4659
Kd [1]: 16.4 nM
koff [1]: 0.00199 s⁻¹
kon [1]: 121000 M⁻¹ s⁻¹
t1/2 [1]: 5.8 min
Kd [2]: 15.7 nM
koff [2]: 0.00245 s⁻¹
kon [2]: 156000 M⁻¹ s⁻¹
t1/2 [2]: 4.7 min
% Blockade [4]: 97%
IC50 [4]: 39 nM
% Blockade [5]: 90%
IC50 [5]: 180 nM
EC50 [7]: 0.29 nM
EC50, T-cell/APC IL-2 release assay, APC HEK293/hCD20/hCD80 [9]: 40.9 nM
Fold induction of IL-2 at 100 nM, APC HEK293/hCD20/hCD80 [9]: 5.4 fold
EC50 [6]: 0.21 nM
ratio of RLU signal to parental VI-fibroblast at 0.4 nM Ab [6]: 20 ratio
EC50, T-cell/APC NFAT-luciferase assay, +Fc Block [8]: 1.73 nM
EC50, T-cell/APC NFAT-luciferase assay, -Fc Block [8]: 1.61 nM

B8: H1H19291P (antibody, human IgG1, V domains shown)
VH: QVQLVESGGGVVQPGRSLRLSCAASGFTFSTYGMHWVRQAPGKGLEWVTVIWYDGNNKYYADSVKGRFTISRDNSKNTLYLQMNNLRAEDTALYYCARGGGRLSYYHDYWGQGTLVTVSS
VL: DIQMTQSPSSLSASVGDRVTITCRASQSISTFLNWYQQKPGKAPNLLIYGTSSLQSGVPSRFSGSGSGTDFTLTISSLQPEDFAAYYCQQTYSTPFTFGPGTKVDIK
Kd [1]: 13.8 nM
koff [1]: 0.00123 s⁻¹
kon [1]: 88800 M⁻¹ s⁻¹
t1/2 [1]: 9.4 min
Kd [2]: 13 nM
koff [2]: 0.00121 s⁻¹
kon [2]: 93100 M⁻¹ s⁻¹
t1/2 [2]: 9.6 min
% Blockade [4]: 99%
IC50 [4]: 2.5 nM
% Blockade [5]: 98%
IC50 [5]: 2 nM
ratio of RLU signal to parental VI-fibroblast at 0.4 nM Ab [6]: 5 ratio
EC50, T-cell/APC NFAT-luciferase assay, +Fc Block [8]: 3.92 nM
EC50, T-cell/APC NFAT-luciferase assay, -Fc Block [8]: 2.36 nM
EC50, T-cell/APC NFAT-luciferase assay, +Fc Block [11]: 7.67 nM
